Assay results reported in article PMC12667410 (Cell chemical biology, 2024).

Columns and labels:
[1] = target: LgBiT Protein (LgBiT subunit of the NanoBiT luciferase; large, truncated fragment of NanoLuc) (Oplophorus gracilirostris); assay: split reporter
[2] = target: T1, SIRT5 (Homo sapiens, UniProt Q9NXA8); assay: SIRTify cell-free assay, SIRT5; type: biochemical; conditions: ratio of IC50 values
T1 sequence (Q9NXA8 37-310): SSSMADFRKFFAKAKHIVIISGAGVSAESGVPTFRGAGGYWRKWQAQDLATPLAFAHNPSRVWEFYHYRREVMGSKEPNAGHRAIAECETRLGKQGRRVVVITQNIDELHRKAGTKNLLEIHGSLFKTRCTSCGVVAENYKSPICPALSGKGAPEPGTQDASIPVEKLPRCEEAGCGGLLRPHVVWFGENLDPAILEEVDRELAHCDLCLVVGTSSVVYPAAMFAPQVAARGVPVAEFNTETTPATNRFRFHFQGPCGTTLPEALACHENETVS

fold decrease in luminescent signal against unmodified p86 [1] [fold]	lower IC50 for SIRT5 deglutarylase compared to desuccinylase activity [2]	fold reduced affinity compared to p86 [1] [fold]	Compound
7.5	–	–	p86-Succinyl8,9: H2N-VSGWRLF(KSuc)(KSuc)IS-OH (peptide)
5.8	–	175	p86-Acetyl8,9: H2N-VSGWRLF(KAc)(KAc)IS-OH (peptide)
1.1	–	–	p86-Acetyl9: H2N-VSGWRLFK(KAc)IS-OH (peptide)

Further lines, the compound ahead of its results:

Compound	fold decrease in luminescent signal against unmodified p86 [1] [fold]	lower IC50 for SIRT5 deglutarylase compared to desuccinylase activity [2]	fold reduced affinity compared to p86 [1] [fold]
O=C(O)CCNC(=S)NCCCC[C@H](NS(=O)(=O)c1cccc(F)c1)C(=O)N[C@@H](Cc1c[nH]c2ccccc12)C(=O)NC1CCC1 [SIRT5 Inhibitor I (S5I1)]	–	approximately 3 fold	–
p86-Acetyl8: H2N-VSGWRLF(KAc)KIS-OH (peptide)	1.1	–	–
p86-Succinyl8: H2N-VSGWRLF(KSuc)KIS-OH (peptide)	1.7	–	–
p86-Succinyl9: H2N-VSGWRLFK(KSuc)IS-OH (peptide)	1.7	–	–
